Test results reported in US9957295B2, “Peptides inhibiting cold-inducible RNA binding protein activity” (The Feinstein Institute for Medical Research, priority 2013, dated 2018).

How the values were obtained:
[1] = test system: RAW 264.7 cells; assay: Cytokine release from RAW 264.7 cells stimulated with recombinant CIRP; assay type: cell-based, murine; conditions: for TNF-α release from RAW 264.7 cells (in words): 100 ng/ml, 4 h, or indicated concentrations and times
Procedure: Murine macrophage-like RAW 264.7 cells were obtained from ATCC (American Type Culture Collection, Manassas, Va.), and were grown in Dulbecco's Modified Eagle's Medium (DMEM, Life Technologies, Grand Island, N.Y.) containing 10% (vol/vol) FBS (heat-inactivated at 56° C. for 30 min), 100 U/ml penicillin, 100 μg/ml streptomycin and 2 mM glutamine. Cells were re-suspended in medium and incubated in 6 or 48-well tissue-culture plates overnight in a humidified incubator (37° C., 5% CO2). In the experiments, cell monolayers were stimulated with or without recombinant CIRP at various indicated concentrations and for various indicated times. The cell-free supernatants were assayed for TNF-α by ELISA or for HMGB1 by western blot analysis.
(§1) As an index of the inflammatory cytokine cascade and the acute inflammatory response, supernatants from cells incubated with recombinant CIRP were measured for TNF-α and IL-6 levels in serum, tissue homogenates, and culture medium grown with macrophages using a commercially available enzyme-linked immunosorbent assay (ELISA) kits (BioSource International, Camarillo, Calif.) according to the manufacturer's instruction. To quantify TNF-α and IL-6 protein levels in serum and tissue, serum samples were harvested 4 h after hemorrhage, or 4 h after treatment with recombinant CIRP from animals by cardiac puncture at the time that the rats were sacrificed, and collected tissue samples, and carried out by the same method as above. HMGB1 levels were determined by Western blotting.
To address whether the extracellular CIRP could function as an inflammatory mediator, recombinant murine CIRP (rmCIRP) was expressed and purified using a bacterial expression system with more than 97% purity and confirmation by Western blotting (FIGS. 16A and B). […] J. Immunol. 174, 3306-3316 (2005); Henderson, B., et al. The extracellular signaling actions of molecular chaperones are not due to microbial contaminants. Cell Stress Chaperones 15, 123-141 (2010)). […]
In parallel experiments, cytokines in the supernatant of cultured RAW cells incubated with rCIRP were measured. […]

[2] = test system: healthy rats; assay: Administration of recombinant CIRP to healthy rats; assay type: in vivo, rat
Procedure: as §1
Serum concentrations of aspartate aminotransferase (AST), alanine aminotransferase (ALT), and lactate were determined by using assay kits according to the manufacturer's instructions (Pointe Scientific, Lincoln Park, Mich.).
Healthy rats were intravenously administered rmCIRP (1 mg/kg BW) or normal saline (vehicle). After the injection of rCIRP (1 mg/kg BW) or buffer solution (same volume), as control, serum levels of TNF-α increased markedly in the rCIRP group, about 5 fold higher than buffer (sham) group (FIG. 4A). […] RAW 264.7 cells were incubated with indicated concentrations of rmCIRP for 20 h. HMGB1 levels in conditioned medium (CM) were determined by Western blotting. Band intensities were quantified with densitometry. […] After 4 hours, blood and tissues were collected for analysis. […] Data are mean±s.e.m., n=6-9/group, *P<0.05 vs. vehicle.
In additional groups of normal healthy animals, rCIRP, for example rmCIRP (1 mg/kg BW) or buffer (same volume, 1 ml) were administered. At 4 h after the completion of treatment, blood samples were collected and placed on ice to allow clotting, and then were centrifuged at 1200 g for 10 min at 4° C., and the serum samples were stored at −80° C. until assayed. […]

B1: rmCIRP: recombinant murine (rat sequence) His-tagged CIRP expressed in E. coli (protein)
chain: MASDEGKLFVGGLSFDTNEQALEQVFSKYGQISEVVVVKDRETQRSRGFGFVTFENIDDAKDAMMAMNGKSVDGRQIRVDQAGKSSDNRSRGYRGGSAGGRGFFRGGRSRGRGFSRGGGDRGYGGGRFESRSGGYGGSRDYYASRSQGGSYGYRSSGGSYRDSYDSYATHNEHHHHHH
TNF-α release from RAW 264.7 cells (in words) [1]: increased TNF-α release in a dose- and time-dependent manner
TNF-α release from RAW 264.7 cells (in words) ([1]; listed as rCIRP): significantly increased TNF-α release
increase of HMGB1 release from cultured RAW cells ([1]; 500 ng/ml, 20 h incubation, Western blot): about 6 fold
serum TNF-α versus buffer (sham) group ([2]; 1 mg/kg BW): about 5 fold
serum TNF-α, IL-6, HMGB1 levels and organ injury markers AST and ALT ([2]; 1 mg/kg BW intravenous, 4 hours, vs normal saline): significantly increased
serum levels of AST and ALT ([2]; 1 mg/kg BW, normal healthy rats): significantly elevated
